Reference: patent publication US20050196797

Tests used:
[1] = system: SMGBP1 (SMG Binding Protein 1)
[2] = system: protein having a molecular weight of 70 kDa (p70)

Sequence of SMGBP1 (SMG Binding Protein 1) (chain, as listed by the source): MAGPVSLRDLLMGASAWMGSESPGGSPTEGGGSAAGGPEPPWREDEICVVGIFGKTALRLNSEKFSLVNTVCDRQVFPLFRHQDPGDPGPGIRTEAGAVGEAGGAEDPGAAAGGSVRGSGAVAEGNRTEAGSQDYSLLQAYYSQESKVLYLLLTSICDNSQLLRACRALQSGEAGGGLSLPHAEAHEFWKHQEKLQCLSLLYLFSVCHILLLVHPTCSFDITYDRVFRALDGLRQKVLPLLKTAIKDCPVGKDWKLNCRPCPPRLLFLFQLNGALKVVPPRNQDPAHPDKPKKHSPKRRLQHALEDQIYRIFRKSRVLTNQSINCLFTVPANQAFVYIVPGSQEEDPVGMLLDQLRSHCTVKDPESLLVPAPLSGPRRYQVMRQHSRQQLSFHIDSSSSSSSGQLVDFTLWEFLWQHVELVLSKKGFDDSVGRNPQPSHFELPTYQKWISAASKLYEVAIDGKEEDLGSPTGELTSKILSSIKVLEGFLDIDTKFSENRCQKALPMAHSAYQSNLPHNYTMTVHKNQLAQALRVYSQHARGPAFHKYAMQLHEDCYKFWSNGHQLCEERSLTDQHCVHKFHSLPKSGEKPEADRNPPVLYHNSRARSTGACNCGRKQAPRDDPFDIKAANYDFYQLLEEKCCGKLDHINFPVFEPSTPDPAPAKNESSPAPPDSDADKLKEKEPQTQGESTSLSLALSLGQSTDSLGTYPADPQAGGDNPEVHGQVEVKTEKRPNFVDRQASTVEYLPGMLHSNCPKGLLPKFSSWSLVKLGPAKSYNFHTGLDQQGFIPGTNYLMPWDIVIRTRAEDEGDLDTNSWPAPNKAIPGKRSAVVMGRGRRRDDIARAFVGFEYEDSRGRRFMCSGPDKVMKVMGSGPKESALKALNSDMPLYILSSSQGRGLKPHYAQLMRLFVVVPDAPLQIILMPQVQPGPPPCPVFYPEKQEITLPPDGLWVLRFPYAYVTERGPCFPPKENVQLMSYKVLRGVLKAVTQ

human SMG-1 (hSMG-1)
phosphorylation in the hSMG-1 immunoprecipitate (32P autoradiography) [1]: a protein having a molecular weight of 130 kDa (p130) and a protein having a molecular weight of 70 kDa (p70), were detected as phosphorylated proteins. The patterns of phosphorylation thereof accorded exactly with those of autophosphorylation of hSMG-1. | phosphorylation in the hSMG-1 immunoprecipitate (32P autoradiography) [2]: a protein having a molecular weight of 130 kDa (p130) and a protein having a molecular weight of 70 kDa (p70), were detected as phosphorylated proteins. The patterns of phosphorylation thereof accorded exactly with those of autophosphorylation of hSMG-1.
